Measured values taken from the DeepSol protein solubility set.

Assay: soluble on expression in E. coli; label from the status in PepcDB or PDB records

| Sequence | soluble on expression in E. coli |
| --- | --- |
| MGSDKIHHHHHHMQRDDDSFMLVPSKGEDYMAGWHLDTKMAQDIVARTMRIIDTNINVMDARGRIIGSGDRERIGELHEGALLVLSQGRVVDIDDAVARHLHGVRQGINLPLRLEGEIVGVIGLTGEPESLRKYGELVCMTAEMMLEQSRLMHLLAQDSRLREELVMNLIQAEEHTPALNEWAQRLGIDLNQPRVVAMIEVDSGQLGVDSAMAELQQLQNALTTPDRNNLVAIVSLTEMVVLKPALNSFGRWDADDHVRRVEQLIARMKENGQLRFRVALGNFFTGPGSIARSYRTARTTMMVGKQRMPESRSYFYQDLMLPVLLDSLRGGWQANELARPLARLKAMDNNGLLRRTLQAWFRHNVQPLATSKALFIHRNTLEYRLNRISELTGLDLGSFDDRLLLYIALQLDEQR | not soluble |
| STDDKDVLRDVWFGRIPTCFTLYQDEITEREAEPYYLLLPRVSYLTLVTDKVKKHFQKVMRQEDVSEIWFEYEGTPLKWHYPIGLLFDLLASSSALPWNITVHFKSFPEKDLLHCPSKDAVEAHFMSCMKEADALKHKSQVINEMQKKDHKQLWMGLQNDRFDQFWAINRKLMEYPPEENGFRYIPFRIYQTTTERPFIQKLFRPVAADGQLHTLGDLLREVCPSAVAPEDGEKRSQVMIHGIEPMLETPLQWLSEHLSYPDNFLHISIVPQPTD | soluble |
| MSLTLDLRESEIVEAVYESNHTWVSVEAKIDYELDPTVLFHLTEENAGDRFYYKKNDNKTSFFGYHAITRFKNDFENKQSIFREWQKYKSDIELIHPSSDKHHLKICGGFQFSMHKSGDEWREFGINHFILPEVLITMENGVSYITYTVKAEQFEIEQFKALIAHLTQNTIDSEFEIGNIKRIEDIYKDEWRDLVKDTIDVLDEHKKIVLARKRLVMFDKNINIPYILQKASQGEHNSYLFVLESQDSIFFSQTPEQLMEVNNGILSTKAVAGTIKRTHQDEVDKENIQAFLNDDKNLNEHRFVVESILNDIAPYVRDITFNETPQILTNDHLYHLYTKIKGQLENDSYIGLLDNLHPTPALGGYPKAEAIEYIEQNEFGTRGLYGAPVGYIDMNDDCEFIVAIRSMLIKKNQATLFAGCGIVKNSDADSEVEETAVKFNPMMKALGVEEYEGHHHHHH | soluble |
| MADKSAYMGAGGYGSGYMGSNASSSGYAREDYAQGGNGGGQQQQNQGSGGNTNPGGQVFKARTDQSCYLGP | not soluble |
| MLASIPLKDIQIQDRFWKERLDLVRKEIIPYQWEAMNDRVPNAEPSHCIENYRIAAGQAQGSFYGEVFQDSDLAKWLEAVAYVLSFQPDPKLEKLADEAIELVCAAQQSDGYLNTFFTIKEPDQRWRNLREGHELYCAGHMMEAAVAYFEATGKRRLLDAMMRFADLICNTFGPEEGKIHAYPGHEEVELALFRMYRATGVRRYLELSAYFINCRGTGENYFRKENDRPGYLPIWGSMDTNSDMSYYQAHQPVREQKQAAGHAVRAMYLYSAMADLAGELKDEGLLNACKTLWNNVTERQMYVTGGVGASGILERFTTDYDLSNEMAYAESCASIGLMLFGLRMNRVTRQAQYFDPVERALYNTVLASVALDGKSFFYVNPLEVWPKACMPYTSKEHVKPVRQPWFSCACCPPNVARTFASLGQYIWAQDSQRVYLNLFISSTVKAKNGAILKLETEFPMGNVLKITSDQVLELAVRIPGYGKNFRANVSYRKENGYGVFELEAGKELEIQFDAPACFIRANPEVRACSGKVCIQRGPVVYCLEEIDNGSNLSALSVDTAVSPGERESDIPGGLMITASGKRRRPWADDKLYGEIPSQYEETVLQAVPYAFWGNREKGEMTVWIRESLEHHHHHH | not soluble |
| GPGSMTVRRMFCFLLPPPSHHRLSRSSLAHAHLPHIRMSAHFAQCRSTHVHTYTHTHVHTHDTLARAACRLCTSSPPVRAREMALLAPKALHKRVKGTNVEVRKEVTDDNTDAQLALLYSIHADDETELRWLHNTLRPERNLVHPSDAFLHGIKALHPAAVFNTFDVKKAKLRRLTKYEKDKETAMKRRKKEVAPTAAYKAAVNPHKTPRTGGAAPADEVRVLSRGMNKAQKARSRTRTAHKSGKVVNGAEAPKGFFTKWKKRKLEKIGRGL | soluble |
| MKLVLFDCDGTLVDSAGLIHAVMSETFADFGKPRPDISETKAIIGLTLDIAIARMLGRAHVDDEAAAMALRYKENYHPLRERFENATPLFDGIASLIDMLSKRDDVLIGAVTGKGRRGLTQILETHGFADHFIVSRTADDCPSKPHPAMVMECCHETGMVPADTIVIGDAIYDMQMAKAAGAKAIGVAWGYASVEDLWKAGADAVVNHPNDIPAYVPADITE | not soluble |
| MDSSNPSSLPLEKSSGNVQKGKLLNIWSRCIAQPSSFLGSSISRFWANADIKNRVCSAAIGRVNFVSKCLKKFPEVSLSCNISASLSLNTGKEKVKNEDLEKQERCHKVAMIEYEIQNLERQLKKRQF | not soluble |
| MADWVTGKVTKVQNWTDALFSLTVHAPINPFTAGQFTKLGLEIDGERVQRAYSYVNAPDNPNLEFYLVTVPQGKLSPRLAALKPGDEVQVVSDASGFFVLDEVPDCETLWMLATGTAIGPYLSILQYGQDVARFKNLVLVHAARFAADLSYLPLMLELQQRYEGKLRIQTVVSRENVPGSLTGRVPALIENGELEKAVGLPMDKETSHVMLCGNPQMVRDTQQLLKETRQMTKHLRRRPGHMTAEHYW | not soluble |
| GPGSMLALSQGLPTVDPALVKAFKRAANNASTSGDVDDDSRRQEVARINKEAQKAWRAEEKSFIPAIYLRTRDPSAEDVLQHLRVTSKAFELNLRFRDIEQLDEMQVKLWSLLTADKSKQTVTISEFTEIMNKLKVWQGQRFEPTPKTSPCREISVRSAQQECPVDTTPLDEVMYVGVAKRPRPSLQLFLSCPRSHAGGVEVAHIYQRFAKQVSLVKCEAELLMWDTNNDGRLTEDELESYVRDLVSRVDALRDISNDILPFYCCAVSRRIFWALDPGMRGTIRIDALLQSPLMDEWVSLQLMREDLPRNWFSAAITSHLYDKFLLLDTRNQGTLNAANMKLYKKGLPTVRDDGLPRGVGPLSSLFIDRFFETSVMMACSELDFRKFVDFVIAVEFLPACQRPLFFWNILDIEGCGVLRPVHVNSFFRETHSKLVEAGLEMPSRETVVQEVFDLIPTAEPLRITREEFVKAPQAGLFVALLIDCLSFWAYENREQR | not soluble |
| MRRCPLCHSTQTHLLLQDKKRCFYICQTCWLTFADANSHLPPAAEKQRYGRSRIASKQRHLSQFILPLLTQIQQQQNGSLTGLNFGRVLDQTSLETIESAGHTFKQYDPFFAPDHETLKQEYDFICCYRVFEHFQYPIKEWSLLTRLLKPGGWLAISTPLLIDLEGFAKWHYKNNLTHVSFYQRQTFEYLASNSDFELLFAAKDLVLMQKTSLEHHHHHH | soluble |
| MFPSVDPEKCEDKGECVSTCPYEVFELGIRTAEEISELSFIGRIEARAHGNRMARTSHIDMCHVCGDCVIVCSEKAIRLLPR | not soluble |
| MNIKFKPVEPADRSAITTITFSSVARICDLAFSNLYCWSFVYGTSWAIVEGCLIIRFKPKSRSHPVYLFPVGADPEQVVAAAHRLKAEVVHEDYPLIFMGVTPDIHRCIEEHCSAEYYFIEDEAYCDYIYERESLATLSGKKLQAKRNHINKFVSLYPDYTYDPVKDSDAEECLMLAHLWLDSRGDQDGRELEVEMVERAFRHRQELGLSGGVLRVGGRVVAFCLGSPINTDTFGVHIEKADAMVEGAFAMINREFARSIPDTFRYINREEDLGLPGLRQAKLSYRPAILLPKQTAILRRDHDRIQA | not soluble |
| SATAQLSHCITIHKASKETVFPSQITNEHESLKMVKKLFATSISCITYLRGLFPESSYGERHLDDLSLKILREDKKCPGSLHIIRWIQGCFDALEKRYLRMAVLTLYTDPMGSEKVTEMYQFKFKYTKEGATMDFDSHSSSTSFESGTNNEDIKKASVLLIRKLYILMQDLEPLPNNVVLTMKLHYYNAVTPHDYQPLGFKEGVNSHFLLFDKEPINVQVGFVSTGFHSMKVKVMTEATKVIDLENNLFRENSTTEIAHQGLDCDEEEECNDHIQRMNFVCSQQSSECSRKKRKVSEPVKVFIPNRK | soluble |
| MQIDKLRGRELDQLFKAILSLRDLEECYRFFDDLCTVNEIQALAQRLEVARMLREGYTYHKIETETGASTATISRVKRCLNYGNDAYAMALDRIKEEQQQEEKEANEAVTD | not soluble |
| MIKKDYAQIKETLYTETLENGLKVYLLPKNDFQKTYGLFTTDYGSIDNTFVPIGQEEMIEVPDGIAHFLEHKMFEKEDGDVFQKFGQQGASANAFTSFTKTSYLFSTTDQVTQNLETLLDFVQSPYFTKETVEKEKGIIGQEIQMYLDDPNWRLFFGILGNLYPKHPLHIDIAGTVASIAEITAEDLYTCYNTFYHPSNMTLFVVGKMDPEALMAFIRENQAAKEFPAAQPIRRHFPEETAADIVKESAIEMTVTRAKVLVGLKGLDEVPTTGRDLMKYQVTVNLLLQLLFGNTSQNYLALYDEGLLDDSFSYDFNLDRSFHFADIGGDSEQPEVLAERIEAILLSATTSPELTEENLSLLKKKMIGKYFQSLNSLEYIANQFSQSLFGETTLFDKIEVIESIQLADVRQVAETFIREEGLSRFYMYPKGETEQ | not soluble |
| MSDATLHNTTQDPDDFAVQIADQVESFLVAVTEVAKGDEPDSAVPFLLLEVSQLLLAGGRLGAHEDIVPDERYEPDMGPEPDVDELRERLATMLDPVDVYSEVFDPYEPRKAPVPARISDDLADVIADLRHGMAHYRAGRTTEALWWWQFSYFSNWGSTASATLRALQSLVAHVRLNQPLEELDGLDTDQDLSEDALAEEAGRVMASEIAGPLGLRTVRLEHHHHHH | soluble |
| MAHHHHHHMAAVTPPTSRALPLEATAIFPPQGSRELDRGAPPLESLSCTKRATAAQHIRGGEGRGAAPCLYIQTVSGSLLPVVLSPSPTHSPIPQRCEQYRDAYANVTICIDTEERSIQRLETFGGGTTITAILCKRYFPPFQ | not soluble |
| GRMENEESDVKPPDWPNPMNATSQFPQPQHFDSFGLRLPRDITELPEWSEGYPFYMAMGFPGYDLSADDIAGKFQFSRGMRRSYDAGFKLMVVEYAESTNNCQAAKQFGVLEKNVRDWRKVKPQLQNAHAMRRAFRGPKNGRFALVDQRVAEYVRYMQAKGDPITREAMQLKALEIAQEMNIPEKGFKASLGWCRRMMRRYDLSLRHKVPVPQHLPEDLTEKLVTYQRSVLALRRAHDYEVAQMGNADETPICLEVPSRVTVDNQGEKPVLVKTPGREKLKITAMLGVLADGRKLPPYIILRGTYIPPGKFPSGMEIRCHRYGWMTEDLMQDWLEVVWRRRTGAVPKQRGMLILNGFRGHATDSVKNSMESMNTDMVIIPGGLTSQLQVLDVVVYKPLNDSVRAQYSNWLLAGNLALSPTGNAKKPPLGLFLEWVMVAWNSISSESIVQGFKKCHISSNLEEEDDVLWEIESELPGGGEPPKDCDTESMAESN | soluble |
| MTLNITSKQMDITPAIREHLEERLAKLGKWQTQLISPHFVLNKVPNGFSVEASIGTPLGNLLASATSDDMYKAINEVEEKLERQLNKLQHKSESRRADERLKDSFEN | soluble |
| SSRTFTEQLNALLELGCETLGSSFGTLSRVHGDEYVFEAVTAPTTADLEAGRTTSIEDLPNCRHVVEHREPLAIRDVEADAPDLADPEWGIVNYIGAPVVVDGAVYGTFCFYGLEPRTAEFTQWDLTFVRLLSDWAGYELERQRHSEQRDALNTAF | not soluble |
| MPAYHSKFDTELKVLPLGNTNMGKLPIRTNFKGPAPQTNQDDIIDEALTYFKPNIFFREFEIKGPADRTMIYLIFYITECLRKLQKSPNKIAGQKDLHALALSHLLPIPGENGFPLNSMYKAPQSKPDEDEMRAYLQQIRQEIGARLCDLAFPDPQDRPSKWWLCFARRRFMDKGLVGQGVNL | soluble |
